Data set [1] has as its target T1, StBEL-05/POTH1 heterodimer (Solanum tuberosum).
T1 chain 1: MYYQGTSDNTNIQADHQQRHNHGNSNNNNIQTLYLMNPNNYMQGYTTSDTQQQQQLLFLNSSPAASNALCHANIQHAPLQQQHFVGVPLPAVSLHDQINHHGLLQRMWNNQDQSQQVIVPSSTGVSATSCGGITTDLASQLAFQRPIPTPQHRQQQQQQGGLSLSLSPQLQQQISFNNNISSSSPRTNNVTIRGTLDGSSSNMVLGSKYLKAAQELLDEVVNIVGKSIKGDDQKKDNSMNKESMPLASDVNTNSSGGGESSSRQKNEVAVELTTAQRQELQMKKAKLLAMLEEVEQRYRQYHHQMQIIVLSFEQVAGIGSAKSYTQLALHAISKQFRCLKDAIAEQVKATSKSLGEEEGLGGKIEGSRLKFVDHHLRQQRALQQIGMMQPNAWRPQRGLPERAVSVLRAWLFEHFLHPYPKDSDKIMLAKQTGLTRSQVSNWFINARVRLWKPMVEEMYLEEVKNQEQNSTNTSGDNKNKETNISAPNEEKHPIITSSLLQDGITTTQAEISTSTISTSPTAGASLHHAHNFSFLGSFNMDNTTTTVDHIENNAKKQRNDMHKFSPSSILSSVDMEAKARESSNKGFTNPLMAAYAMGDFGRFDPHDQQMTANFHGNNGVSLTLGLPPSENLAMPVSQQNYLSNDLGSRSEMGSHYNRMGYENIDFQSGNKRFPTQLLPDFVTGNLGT
T1 chain 2: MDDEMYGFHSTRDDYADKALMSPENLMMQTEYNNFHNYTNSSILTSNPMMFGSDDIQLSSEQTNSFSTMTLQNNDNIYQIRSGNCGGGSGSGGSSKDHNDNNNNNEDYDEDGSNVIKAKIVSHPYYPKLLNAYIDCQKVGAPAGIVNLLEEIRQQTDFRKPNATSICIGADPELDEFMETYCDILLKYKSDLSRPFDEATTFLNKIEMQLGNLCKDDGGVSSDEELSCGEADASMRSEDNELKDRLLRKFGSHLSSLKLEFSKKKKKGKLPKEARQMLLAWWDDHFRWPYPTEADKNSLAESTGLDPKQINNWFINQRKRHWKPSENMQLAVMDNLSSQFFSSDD
Briefly: EMSA; deduced consensus TGA(C/G)(T/A)TGAC. Particulars: tags: GST cleaved by Factor Xa.

Data set [2] deals with T2, StBEL-05 (Solanum tuberosum).
T2 chain: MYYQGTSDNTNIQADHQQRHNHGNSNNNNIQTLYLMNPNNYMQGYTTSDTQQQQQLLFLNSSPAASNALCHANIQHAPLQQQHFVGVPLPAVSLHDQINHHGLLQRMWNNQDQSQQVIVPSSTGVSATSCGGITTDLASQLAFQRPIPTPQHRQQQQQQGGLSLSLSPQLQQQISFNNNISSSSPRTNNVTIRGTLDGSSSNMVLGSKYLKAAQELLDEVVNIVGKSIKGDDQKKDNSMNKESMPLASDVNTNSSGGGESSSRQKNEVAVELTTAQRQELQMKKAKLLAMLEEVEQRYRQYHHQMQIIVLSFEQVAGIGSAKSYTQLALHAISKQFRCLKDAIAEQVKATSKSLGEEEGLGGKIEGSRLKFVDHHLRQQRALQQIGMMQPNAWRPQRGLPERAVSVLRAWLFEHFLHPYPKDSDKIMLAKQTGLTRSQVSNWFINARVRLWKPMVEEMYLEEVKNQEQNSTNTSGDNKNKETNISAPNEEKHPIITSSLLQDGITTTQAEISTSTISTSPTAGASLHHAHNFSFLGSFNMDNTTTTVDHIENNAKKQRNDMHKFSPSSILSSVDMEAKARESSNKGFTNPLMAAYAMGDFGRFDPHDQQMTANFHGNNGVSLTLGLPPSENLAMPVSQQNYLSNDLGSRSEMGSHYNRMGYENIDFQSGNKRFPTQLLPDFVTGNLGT
The data set is described as follows: EMSA. The following applies: tags: GST fusion from pGEX-5X-2, GST cleaved by Factor Xa.

In another data set the target is T3, POTH1 (Solanum tuberosum).
T3 chain: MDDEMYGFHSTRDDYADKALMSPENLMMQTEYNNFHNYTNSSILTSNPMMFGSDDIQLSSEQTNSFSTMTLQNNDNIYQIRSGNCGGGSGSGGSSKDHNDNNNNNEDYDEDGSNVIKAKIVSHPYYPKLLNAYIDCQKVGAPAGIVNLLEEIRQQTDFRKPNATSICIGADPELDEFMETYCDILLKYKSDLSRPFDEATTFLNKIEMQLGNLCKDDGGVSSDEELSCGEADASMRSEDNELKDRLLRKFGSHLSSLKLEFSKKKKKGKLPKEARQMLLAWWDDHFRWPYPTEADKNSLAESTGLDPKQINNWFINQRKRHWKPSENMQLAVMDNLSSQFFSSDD
The data set is described as follows: EMSA. Particulars: tags: GST fusion from pGEX-5X-2, GST cleaved by Factor Xa.

Data set [3] concerns the target T4, StBEL-05 in pBridge (GAL4 DNA-binding domain fusion) (Solanum tuberosum).
T4 construct: Range derived as for m2
Briefly: yeast two-hybrid, reciprocal orientation.

The subject of data set [4] is StBEL-05. Briefly: Yeast two-hybrid interaction of POTH1 deletion constructs with StBEL-05. The format is cell-based, potato. The following applies: yeast strain AH109. From the text: The Matchmaker two-hybrid system (Clontech, CA) was used for the yeast two-hybrid screen. Yeast transformation and plasmid rescue into DH5-a E. coli cells were according to the manufacturer's instructions. Full-length POTH1 was cloned into the pBridge (Clontech, CA) vector and used as bait to screen the potato (S. tuberosum ‘Desireé’) stolon cDNA library in pAD-GAL4-2.1 (Stratagene, Calif.). Positive interactions were confirmed by cotransforming yeast strain AH109 with each purified pAD plasmid and pBridge: POTH1 and plating on -leucine/-tryptophan (transformation control) and -leucine/-tryptophan/-histidine/-adenine (selection) nutrient medium. Induction of the AH109 reporter gene, lacZ, was measured with a yeast β-galactosidase assay kit (Pierce Chemicals). β-galactosidase activity (FIG. 9B) was determined from a known density of yeast cells and calculated as 1000×OD420/time of color reaction (minutes)×volume of yeast culture (ml)×OD600.
The StBEL-05 deletion constructs were amplified by PCR, then cloned into the vector, pGAD, in-frame with the GAL4 activation domain. POTH1 deletion constructs were amplified by PCR, and cloned into pBridge (Clontech) in-frame with the GAL4 binding domain. Sequencing of selected cDNAs and constructs was performed at the Iowa State University DNA Facility. […]

B1: P1 binding site oligo (dsDNA)
DNA 1: TTGACTTGAC
DNA 2: GTCAAGTCAA
Consider B1, for which the binding result (in data set [1]; in the data set with StBEL-05 [2]; in the data set with POTH1) was “binds” each time.

B2: pBHD9 construct (first 114 aa of POTH1) cloned into the pGAD vector (GAL4 activation domain fusion) (other, not shown: large carriers)
chain: MDDEMYGFHSTRDDYADKALMSPENLMMQTEYNNFHNYTNSSILTSNPMMFGSDDIQLSSEQTNSFSTMTLQNNDNIYQIRSGNCGGGSGSGGSSKDHNDNNNNNEDYDEDGSN
notes: also called pBDH9 construct in pGAD
With B2, the binding result in data set [3] is given as “no binding”.

B3: pBHD-9: POTH1 construct: first amino-terminal 114 aa, no KNOX domain sequence; transcriptional activator alone (protein)
chain: MKLLSSIEQACDICRLKKLKCSKEKPKCAKCLKNNWECRYSPKTKRSPLTRAHLTEVESRLERLEQLFLLIFPREDLDMILKMDSLQDIKALLTGLFVQDNVNKDAVTDRLASVETDMPLTLRQHRISATSSSEESSNKGQRQLTVSMDDEMYGFHSTRDDYADKALMSPENLMMQTEYNNFHNYTNSSILTSNPMMFGSDDIQLSSEQTNSFSTMTLQNNDNIYQIRSGNCGGGSGSGGSSKDHNDNNNNNEDYDEDGSN
In the case of B3, the “interaction with StBEL-05” value in the data set on StBEL-05 [4] is listed as “Interaction with StBEL-05 was observed”.

The values above are taken from patent publication US7579150B1, “Mobile RNA acts as a signal to regulate plant growth and development” (Iowa State University Research Foundation, Inc., priority 2004, dated 2009).
